B1: CDC25A (parent)
chain: TVAGKHQDLKYISPEIMASVLNGK

Variants of: B1
Test: protein stability index of a GFP-peptide fusion (GPS, HEK-293T) (PSI 1-6); higher = more stable
Conditions: c terminus: a fixed tail appended
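Note: lentivirally expressed fusions sorted by FACS into six bins by GFP to DsRed ratio, PSI derived from sequencing read proportions per bin multiplied by bin number.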

Variant	protein stability index
EVAGKHQDLKYISPEIMASVLNGK	3.45
CVAGKHQDLKYISPEIMASVLNGK	3.07
DVAGKHQDLKYISPEIMASVLNGK	3.29
TVAGKHQDLKYISPFIMASVLNGK	2.07
TVAGKHQDLKYISPTIMASVLNGK	2.63
TVAGKHQDLKYISPLIMASVLNGK	1.99
TVAGKHQDLKYISPRIMASVLNGK	2.64
TVAGKHQDLKYISPMIMASVLNGK	2.19
TVAGKHQDLKYISPSIMASVLNGK	3.09
TVAGKHQDLKYISPAIMASVLNGK	2.77
TVAGKHQDLKYISPPIMASVLNGK	3.05
TVAGKHQDLKYISPYIMASVLNGK	1.84
TVAGKHQDLKYISPEIMASVYNGK	3.18
TVAGKHQDLKYISPEIMASVFNGK	3.16
TVAGKHQDLKYISPEIMASVCNGK	3.54
TVAGKHQDLKYISPEIMASVDNGK	4.05
TVAGKHQDLKYISPEIMASVRNGK	3.7
TVAGKHQDLKYISPEIMASVENGK	4.02
TVAGKHQDLKYISPEIMASVANGK	3.83
TVAGKHQDLKYISPEIMASVKNGK	4.25
TVAGKHQDLAYISPEIMASVLNGK	2.99
TVAGKHQDLEYISPEIMASVLNGK	3.42
TVAGKHQDLLYISPEIMASVLNGK	1.9
TVAGKHQDLPYISPEIMASVLNGK	3.21

Variant	protein stability index
TVAGKHQDLFYISPEIMASVLNGK	1.78
TVAGKHQDLVYISPEIMASVLNGK	2.24
TVAGKHQDLIYISPEIMASVLNGK	1.69
TVAGKHQDLWYISPEIMASVLNGK	1.62
TVAGKHQDLNYISPEIMASVLNGK	3.34
TVAGKHQDLTYISPEIMASVLNGK	3.31
TVAGKHQDLKYISPEIMASVLGGK	2.84
TVAGKHQDLKYISPEIMASVLFGK	1.93
TVAGKHQDLKYISPEIMASVLYGK	2.41
TVAGKHQDLKYISPEIMASVLIGK	2.77
TVAGKHQDLKYISPEIMASVLKGK	2.94
TVAGKHQDLKYISPEIMASVLPGK	3.4
TVAGKHQDLKYISPEIMASVLQGK	3.37
TVAGKHQDLKYISPEIMASVLAGK	2.92
TVAGKHQDLKYISPEIMASVLWGK	1.95
TVAGKHQDLKYISPEIMASVLDGK	3.54
TVAGKHQDLKYISPEIMFSVLNGK	2.73
TVAGKHQDLKYISPEIMESVLNGK	4
TVAGKHQDLKYISPEIMMSVLNGK	2.33
TVAGKHQDLKYISPEIMGSVLNGK	3.44
TVAGKHQDLKYISPEIMWSVLNGK	1.97
TVAGKHQDLKYISPEIMHSVLNGK	3.08
TVAGKHQDLKYISPEIGASVLNGK	3.88
TVAGKHQDLKYISPEIQASVLNGK	3.73

Variant	protein stability index
TVAGKHQDLKYISPEIHASVLNGK	3.8
TVAGKHQDLKYISPEIVASVLNGK	3.42
TVAGKHQDLKYISPEIAASVLNGK	3.96
TVAGKHQDLKYISPEIPASVLNGK	4
TVAGKHQDLKYISPEIFASVLNGK	2.78
TVAGKHQDLKYISPEIIASVLNGK	2.71
TVAGKHQDLKYISPEIRASVLNGK	3.87
TVAWKHQDLKYISPEIMASVLNGK	2.27
TVAKKHQDLKYISPEIMASVLNGK	3.06
TVASKHQDLKYISPEIMASVLNGK	3.39
TVAQKHQDLKYISPEIMASVLNGK	3.42
TVAYKHQDLKYISPEIMASVLNGK	3.09
TVAIKHQDLKYISPEIMASVLNGK	2.68
TVAVKHQDLKYISPEIMASVLNGK	3.38
TVAMKHQDLKYISPEIMASVLNGK	2.89
TVAGKEQDLKYISPEIMASVLNGK	3.66
TVAGKTQDLKYISPEIMASVLNGK	3.24
TVAGKSQDLKYISPEIMASVLNGK	2.94
TVAGKCQDLKYISPEIMASVLNGK	2.57
TVAGKMQDLKYISPEIMASVLNGK	2.26
TVAGKYQDLKYISPEIMASVLNGK	3.25
TVAGAHQDLKYISPEIMASVLNGK	3.45
TVAGMHQDLKYISPEIMASVLNGK	3.01
TVAGCHQDLKYISPEIMASVLNGK	2.61

Variant	protein stability index
TVAGPHQDLKYISPEIMASVLNGK	3.17
TVAGLHQDLKYISPEIMASVLNGK	3.06
TVAGTHQDLKYISPEIMASVLNGK	3.68
TVAGIHQDLKYISPEIMASVLNGK	2.55
TVAGQHQDLKYISPEIMASVLNGK	3.53
TVAGKHQDLKYISPEIMACVLNGK	2.46
TVAGKHQDLKYISPEIMAPVLNGK	3.65
TVAGKHQDLKYISPEIMARVLNGK	3.29
TVAGKHQDLKYISPEIMAHVLNGK	2.88
TVAGKHQDLKYISPEIMAVVLNGK	2.13
TVAGKHQDLKYISPEIMAKVLNGK	3.24
TVAGKHQDLKYISPEIMAWVLNGK	1.94
TVAGKHQDLKYISPEIMAFVLNGK	2.01
TVAGKHQDLKYISPEIMAAVLNGK	3.1
TYAGKHQDLKYISPEIMASVLNGK	2.79
TRAGKHQDLKYISPEIMASVLNGK	3.21
TIAGKHQDLKYISPEIMASVLNGK	2.91
TLAGKHQDLKYISPEIMASVLNGK	2.96
TGAGKHQDLKYISPEIMASVLNGK	3.33
TPAGKHQDLKYISPEIMASVLNGK	3.51
TDAGKHQDLKYISPEIMASVLNGK	3.89
TAAGKHQDLKYISPEIMASVLNGK	3.28

— the supplement of paper PMC10567573
